Laboratory results: patent US10106589B2, “Compositions and methods for immunomodulation” (FUNDACIO INSTITUT D'INVESTIGACIO BIOMEDICA DE BELLVITGE …, priority 2011, dated 2018)

B1: C4BP α7β1: major C4BP isoform, 7 identical α-chains and 1 β-chain, purified from pooled human plasma (protein, UniProt P04003 49-597; P20851 18-252, looked up)
C4b-binding protein alpha …: NCGPPPTLSFAAPMDITLTETRFKTGTTLKYTCLPGYVRSHSTQTLTCNSDGEWVYNTFCIYKRCRHPGELRNGQVEIKTDLSFGSQIEFSCSEGFFLIGSTTSRCEVQDRGVGWSHPLPQCEIVKCKPPPDIRNGRHSGEENFYAYGFSVTYSCDPRFSLLGHASISCTVENETIGVWRPSPPTCEKITCRKPDVSHGEMVSGFGPIYNYKDTIVFKCQKGFVLRGSSVIHCDADSKWNPSPPACEPNSCINLPDIPHASWETYPRPTKEDVYVVGTVLRYRCHPGYKPTTDEPTTVICQKNLRWTPYQGCEALCCPEPKLNNGEITQHRKSRPANHCVYFYGDEISFSCHETSRFSAICQGDGTWSPRTPSCGDICNFPPKIAHGHYKQSSSYSFFKEEIIYECDKGYILVGQAKLSCSYSHWSAPAPQCKALCRKPELVNGRLSVDKDQYVEPENVTIQCDSGYGVVGPQSITCSGNRTWYPEVPKCEWETPEGCEQVLTGKRLMQCLPNPEDVKMALEVYKLSLEIEQLELQRDSARQSTLDKEL
C4b-binding protein beta chain: SDAEHCPELPPVDNSIFVAKEVEGQILGTYVCIKGYHLVGKKTLFCNASKEWDNTTTECRLGHCPDPVLVNGEFSSSGPVNVSDKITFMCNDHYILKGSNRSQCLEDHTWAPPFPICKSRDCDPPGNPVHGYFEGNNFTLGSTISYYCEDRYYLVGVQEQQCVDGEWSSALPVCKLIQEAPKPECEKALLAFQESKNLCEAMENFMQQLKESGMTMEELKYSLELKKAELKAKLL
B2: C4BP (β^−): C4BP isoforms lacking beta chain: C4BP (α7β0) or C4BP (α6β0) (protein, UniProt P04003 49-597, looked up)
C4b-binding protein alpha …: NCGPPPTLSFAAPMDITLTETRFKTGTTLKYTCLPGYVRSHSTQTLTCNSDGEWVYNTFCIYKRCRHPGELRNGQVEIKTDLSFGSQIEFSCSEGFFLIGSTTSRCEVQDRGVGWSHPLPQCEIVKCKPPPDIRNGRHSGEENFYAYGFSVTYSCDPRFSLLGHASISCTVENETIGVWRPSPPTCEKITCRKPDVSHGEMVSGFGPIYNYKDTIVFKCQKGFVLRGSSVIHCDADSKWNPSPPACEPNSCINLPDIPHASWETYPRPTKEDVYVVGTVLRYRCHPGYKPTTDEPTTVICQKNLRWTPYQGCEALCCPEPKLNNGEITQHRKSRPANHCVYFYGDEISFSCHETSRFSAICQGDGTWSPRTPSCGDICNFPPKIAHGHYKQSSSYSFFKEEIIYECDKGYILVGQAKLSCSYSHWSAPAPQCKALCRKPELVNGRLSVDKDQYVEPENVTIQCDSGYGVVGPQSITCSGNRTWYPEVPKCEWETPEGCEQVLTGKRLMQCLPNPEDVKMALEVYKLSLEIEQLELQRDSARQSTLDKEL

Key:
human Mo-DCs [1] = assay: Quantitative RT-PCR of CCR7, IDO, BIC-1, SOD2 in Mo-DCs; type: cell-based; design: key to IDO / BIC-1: (−) negligible; (+) low; (++) moderate; (+++) high
Procedure: Mo-DCs (10^6/condition) were harvested at day 7 and the mRNA was extracted using the RNeasy RNA Isolation kit (Qiagen) and incubated with RNase-free DNase I (Ambion, Austin, Tex.) according to the manufacturer's protocol. A two-step real-time RT-PCR technique was used to determine the relative mRNA levels of human CCR7, BIC-1, IDO and SOD2. Reverse transcription reactions were performed with 500 ng of total RNA using the Omniscript RT kit (Qiagen). Quantification of mRNA levels was performed by real-time polymerase chain reaction (PCR) with the use of the LightCycler technology (Roche Molecular Biochemicals, Indianapolis, Ind.). The following primers were used: CCR7-f (5′-TGGGCATCTGGATACTAGC-3′) (SEQ ID NO:6), CCR7-r (5′-AAGAAAGGGTTGACGCAGC-3′) (SEQ ID NO:7); IDO-f (5′-[…]-3′) (SEQ ID NO:8); IDO-r (5′-[…]-3′) (SEQ ID NO:9); BIC-1-f (5′-[…]-3′) (SEQ ID NO:10), BIC-1-r (5′-[…]-3′) (SEQ ID NO:11); SOD2-f (5′-GACAAACCTCAGCCCTAAC-3′) (SEQ ID NO:12), SOD2-r (5′-[…]-3′) (SEQ ID NO:13), yielding products of 435, 227, 296 bp, and 248 bp, respectively. These gene-specific primer pairs were designed using Oligo 4.0 and Primer 3 software packages (MBI, Cascade, Colo.) and selected to prevent primer-dimer formation.
All samples were normalized with the use of the following primer set for the constitutively expressed human cyclophilin gene: CypA-f (5′-[…]-3′) (SEQ ID NO:14) and CypA-r (5′-CACCACATGCTTGCCATCC-3′) (SEQ ID NO:15) (Pluvinet R. et al., 2004, Blood. 104: 3642-3646). All primers were purchased from Bonsai Technologies (Copenhagen, Denmark).
PCR amplifications were performed in a 20 μl volume containing 2 μl ready-to-use reaction mix, 10×DNA Master SYBR Green I (Roche Molecular Biochemicals); MgCl2 (3 mM for CCR7; 4 mM for BIC-1 and SOD2, and 5 mM for IDO); 0.15 μM of each primer; 5% dimethyl sulfoxide (DMSO); and 75 ng cDNA as template. The amplification program used an initial denaturation at 95° C. for 10 min, followed by 45 cycles: 95° C. for 1 sec; 58° C. (CCR7 and SOD2)/60° C. (BIC-1 and IDO) for 5 sec; 72° C. for 10 sec.

human Mo-DCs [2] = assay: Scanning electron microscopy of Mo-DC surface morphology; type: cell-based; design: key to Dendrite density and lenght: (−) negligible; (+) low; (++) moderate; (+++) high
Procedure: Monocytes were seeded on glass slides covered with either poly-L-lysine (25 μg/ml) or fibronectin (42 μg/ml), cultured for 5 days in complete RPMI medium supplemented with 800 U/ml GM-CSF, 500 U/ml IL-4, and the C4BP isoforms α7β1, α7β0, or Factor H (10 μg/ml), and further stimulated with LPS for 48 hours in the same medium. The resulting DCs were fixed in 1% paraformaldehyde and 1.25% glutaraldehyde in cacodylate buffer for 2 h. Finally, the cells were post-fixed in 1% OsO4, and dehydrated with graded series of ethanol followed by acetone. After dehydration the cells were dried in a critical-point dryer and coated with gold before observation by scanning electron microscopy (Zeiss DSM940A).

immature Mo-DCs = assay: Endocytic activity (DQ-OVA uptake); type: cell-based, human; design: key: (−) negligible; (+) low; (++) moderate; (+++) high; conditions: functional assay
Procedure: To measure the phagocytic activity of iDCs, 2×10^5 cells/ml were resuspended in 100 μl of PBS and incubated with 4 μl of BODIPY FL-conjugated DQ-Ovalbumin (1 mg/ml, DQ-OVA, Molecular Probes, Leiden, Netherlands) at 37° C. or at 0° C. for 15 min. The incubations were stopped by adding 1 ml of cold FACS buffer. The cells were washed two times with cold FACS buffer and their fluorescence analyzed using a FACScalibur flow cytometer (Becton-Dickinson).

LPS-matured DCs = assay: Phenotype stability after re-stimulation with TNF-alpha+IFN-gamma; type: cell-based, human; conditions: TNF-alpha+IFN-gamma for 24 h without immunomodulatory agents
Procedure: The stability of C4BP(β−)- or FH-treated and LPS-matured DCs was evaluated after further 24 h of induction with pro-inflammatory TNF-alpha (100 U/ml)+IFN-gamma (1000 U/ml) in complete medium without immunomodulatory agents (C4BP(β−) or FH). Median fluorescence intensities (MIF) of DC markers CD83 (A) and CD86 (B) were determined for all DC conditions (with or without TNF-alpha+IFN-gamma). iDC, immature DCs; mDC, untreated LPS-matured DCs; B-5, C4BP(β−)-treated (5 μg/ml) and LPS-matured DCs; WT5, C4BP(β+)-treated (5 μg/ml) and LPS-matured DCs; Rec2, recombinant C4BP(β−)-treated (2 μg/ml) and LPS-matured DCs; FH5, FH-treated (5 μg/ml) and LPS-matured DCs (n=6 per group).
Due to their potential use in the clinical setting, we aimed to study whether an ulterior activation of C4BP(β−)- or FH-treated and LPS-matured DCs would modify the phenotype of these tolerogenic DCs. Therefore, both untreated and C4BP(β−)- or FH-treated DCs were matured with LPS, as previously mentioned, and then re-stimulated without immunomodulatory agents (C4BP(β−) or FH) using TNF-alpha+IFN-gamma for 24 h. […] These tolerogenic C4BP(β−)- or FH-treated DCs were thus phenotypically refractory to secondary stimulation, confirming their stable non-proinflammatory profile.

CD3+ T lymphocytes = assay: Determination of CD4+ CD127low/negative CD25high Foxp3+ T cells; type: cell-based, human; conditions: T cells stimulated 6 days with treated, LPS-matured DCs
Procedure: CD3^+ T lymphocytes were purified from mononuclear cells by negative selection using an EasySep® Human T Cell Enrichment Kit (StemCell Technologies) following the manufacturer's instructions. Purity was >95% in all experiments. Enriched T cells were plated (10^5 cells/well) in 96-well round-bottom plates. […] Stained cells were analysed using a FACSCanto II (Becton Dickinson) and the results were analysed using FlowJo software (Tree Star, Inc, OR, USA).

[3] = transcriptional profile, treated and LPS-induced DCs

Molecule	CCR7 transcript level (human Mo-DCs [1]; RT-qPCR, pretreated, LPS-matured Mo-DCs)	surface morphology of Mo-DCs (human Mo-DCs [2]; SEM after 48 h LPS maturation)	BIC-1 (human Mo-DCs [1]; [3])	IDO (human Mo-DCs [1]; [3])	Dendrite density and lenght (human Mo-DCs [2]; morphology, treated and LPS-induced DCs)	Endocytosis (DQ-OVA) (immature Mo-DCs)	DC phenotype regarding the CD83 and CD86 markers after re-stimulation (LPS-matured DCs)	DC viability after re-stimulation (LPS-matured DCs; not shown)	percentage of CD4+Foxp3+ and CD25^high, CD127^low/negative cells (CD3+ T lymphocytes)
B1	but not with C4BP α7β1, significantly down-regulated	analogous appearance than untreated Mo-DCs							
B2			+	−	+	+	did not induce significant changes	did not induce significant changes	significant increase
